Bridge positions count the residues as written; N and C are the ends. Square brackets hold non-standard residues; d marks the D form. Ends that are not written are not given here.
B1: CD59 (immobilized for SPR) (receptor)
chain: LQCYNCPNPTADCKTAVNCSSDFDACLITKAGLQVYNKCWKFEHCNFNDVTTRLRENELTYYCCKKDLCNFNEQLEN
B2: CP-06 (peptide)
chain: {CH2CO}-[dY]SWTWGNRSSVRGC
modifications: thioether N-14

Columns and labels:
Assay in all cases: SPR
rILYd4 = rILYd4 (Streptococcus intermedius, UniProt Q9LCB8 1-532)
CP-13 = CP-13 (N-terminal Ac-D-Tyr cyclized to a C-terminal Cys (thioether macrocycle))
CP-02 = biological target: CP-02
CP-03 = biological target: CP-03
CP-04 = biological target: CP-04
[1] = biological target: B1
[2] = biological target: B1

B1
Kd (rILYd4): 48.3 nM | Kd (CP-13): 10.8 nM | Kd (CP-02): 15.3 nM | Kd (CP-03): 23.4 nM | Kd (CP-04): 11.9 nM

B2
koff [1]: 0.0204 s⁻¹ | Kd [2]: 11.3 nM

Source: publication PMC12207370 (2025)
